Assay results published in the supplement of paper PMC10567573.

B1: FAM46C (parent)
chain: FDHLQNRLIATKNPEEIRGGGLLK

Variants of: B1
Assay: protein stability index of a GFP-peptide fusion (GPS, HEK-293T) (PSI 1-6); higher = more stable
Conditions: c terminus: a fixed tail appended
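Also: lentivirally expressed fusions sorted by FACS into six bins by GFP to DsRed ratio, PSI derived from sequencing read proportions per bin multiplied by bin number.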

Compared with FDRLQNRLIATKNPEEIRGGGLLK [H3R], FDVLQNRLIATKNPEEIRGGGLLK [H3V] is higher in protein stability index: 3.73 for the first, 3.87 for the second.

Going from FDDLQNRLIATKNPEEIRGGGLLK [H3D] to FDLLQNRLIATKNPEEIRGGGLLK [H3L], the protein stability index falls from 4.52 to 3.25.

Going from FDGLQNRLIATKNPEEIRGGGLLK [H3G] to FDFLQNRLIATKNPEEIRGGGLLK [H3F], the protein stability index falls from 3.79 to 2.06.

First: FDMLQNRLIATKNPEEIRGGGLLK [H3M]
Second: FDWLQNRLIATKNPEEIRGGGLLK [H3W]
The protein stability index of the first is higher: 3.71 for the first, 2.99 for the second.

Compared with FDPLQNRLIATKNPEEIRGGGLLK [H3P], FDCLQNRLIATKNPEEIRGGGLLK [H3C] is lower in protein stability index: 4 for the first, 3.63 for the second.

Going from FDSLQNRLIATKNPEEIRGGGLLK [H3S] to FDNLQNRLIATKNPEEIRGGGLLK [H3N], the protein stability index falls from 3.17 to 3.05.

Going from FDALQNRLIATKNPEEIRGGGLLK [H3A] to FDILQNRLIATKNPEEIRGGGLLK [H3I], the protein stability index falls from 3.72 to 3.59.

First: FDQLQNRLIATKNPEEIRGGGLLK [H3Q]
Second: FDELQNRLIATKNPEEIRGGGLLK [H3E]
The protein stability index of the first is lower: 3.51 for the first, 4.28 for the second.

Compared with FDHLQNELIATKNPEEIRGGGLLK [R7E], FDHLQNVLIATKNPEEIRGGGLLK [R7V] is lower in protein stability index: 4.55 for the first, 3.43 for the second.

Going from FDHLQNGLIATKNPEEIRGGGLLK [R7G] to FDHLQNLLIATKNPEEIRGGGLLK [R7L], the protein stability index falls from 3.09 to 2.94.

Compared with FDHLQNKLIATKNPEEIRGGGLLK [R7K], FDHLQNCLIATKNPEEIRGGGLLK [R7C] is lower in protein stability index: 4.19 for the first, 3.37 for the second.

First: FDHLQNMLIATKNPEEIRGGGLLK [R7M]
Second: FDHLQNALIATKNPEEIRGGGLLK [R7A]
The protein stability index of the first is lower: 3.54 for the first, 4.42 for the second.

Going from FDHLQNQLIATKNPEEIRGGGLLK [R7Q] to FDHLQNILIATKNPEEIRGGGLLK [R7I], the protein stability index rises from 3.64 to 3.67.

Compared with FDHLQNPLIATKNPEEIRGGGLLK [R7P], FDHLQNHLIATKNPEEIRGGGLLK [R7H] is higher in protein stability index: 4.07 for the first, 4.35 for the second.

First: FDHLQNDLIATKNPEEIRGGGLLK [R7D]
Second: FDHLQNYLIATKNPEEIRGGGLLK [R7Y]
The protein stability index of the first is higher: 4.65 for the first, 2.99 for the second.

Compared with FDHLQNFLIATKNPEEIRGGGLLK [R7F], FDHSQNRLIATKNPEEIRGGGLLK [L4S] is higher in protein stability index: 3.82 for the first, 4.8 for the second.

First: FDHFQNRLIATKNPEEIRGGGLLK [L4F]
Second: FDHIQNRLIATKNPEEIRGGGLLK [L4I]
The protein stability index of the first is higher: 3.87 for the first, 3.24 for the second.

Going from FDHVQNRLIATKNPEEIRGGGLLK [L4V] to FDHTQNRLIATKNPEEIRGGGLLK [L4T], the protein stability index rises from 3.54 to 4.27.

Going from FDHWQNRLIATKNPEEIRGGGLLK [L4W] to FDHHQNRLIATKNPEEIRGGGLLK [L4H], the protein stability index rises from 3.8 to 4.79.

Going from FDHAQNRLIATKNPEEIRGGGLLK [L4A] to FDHMQNRLIATKNPEEIRGGGLLK [L4M], the protein stability index rises from 3.78 to 4.04.

Going from FDHGQNRLIATKNPEEIRGGGLLK [L4G] to FDHPQNRLIATKNPEEIRGGGLLK [L4P], the protein stability index falls from 5.22 to 4.62.

First: FDHQQNRLIATKNPEEIRGGGLLK [L4Q]
Second: FDHYQNRLIATKNPEEIRGGGLLK [L4Y]
The protein stability index of the first is higher: 4.47 for the first, 3.85 for the second.

First: FDHNQNRLIATKNPEEIRGGGLLK [L4N]
Second: FDHRQNRLIATKNPEEIRGGGLLK [L4R]
The protein stability index of the first is lower: 4.14 for the first, 4.28 for the second.

First: FDHDQNRLIATKNPEEIRGGGLLK [L4D]
Second: FDHLQNRLIDTKNPEEIRGGGLLK [A10D]
The protein stability index of the first is lower: 4.02 for the first, 4.49 for the second.

Going from FDHLQNRLINTKNPEEIRGGGLLK [A10N] to FDHLQNRLICTKNPEEIRGGGLLK [A10C], the protein stability index falls from 4.07 to 3.46.

First: FDHLQNRLIKTKNPEEIRGGGLLK [A10K]
Second: FDHLQNRLIPTKNPEEIRGGGLLK [A10P]
The protein stability index of the first is lower: 3.49 for the first, 4.52 for the second.

First: FDHLQNRLIITKNPEEIRGGGLLK [A10I]
Second: FDHLQNRLITTKNPEEIRGGGLLK [A10T]
The protein stability index of the first is lower: 2.71 for the first, 3.88 for the second.

Going from FDHLQNRLIVTKNPEEIRGGGLLK [A10V] to FDHLQNRLIYTKNPEEIRGGGLLK [A10Y], the protein stability index falls from 3.38 to 1.87.

Going from FDHLQNRLIETKNPEEIRGGGLLK [A10E] to FDHLQNRLIQTKNPEEIRGGGLLK [A10Q], the protein stability index falls from 4 to 2.25.

Going from FDHLQNRLIGTKNPEEIRGGGLLK [A10G] to FDHLQNRLILTKNPEEIRGGGLLK [A10L], the protein stability index falls from 3.52 to 2.57.

Going from FDHLQNRLGATKNPEEIRGGGLLK [I9G] to FDHLQNRLLATKNPEEIRGGGLLK [I9L], the protein stability index rises from 4.3 to 4.44.

Going from FDHLQNRLAATKNPEEIRGGGLLK [I9A] to FDHLQNRLDATKNPEEIRGGGLLK [I9D], the protein stability index falls from 4.86 to 3.5.

Compared with FDHLQNRLWATKNPEEIRGGGLLK [I9W], FDHLQNRLHATKNPEEIRGGGLLK [I9H] is higher in protein stability index: 2.16 for the first, 3.05 for the second.

Compared with FDHLQNRLSATKNPEEIRGGGLLK [I9S], FDHLQNRLYATKNPEEIRGGGLLK [I9Y] is lower in protein stability index: 3.98 for the first, 3.56 for the second.

First: FDHLQNRLMATKNPEEIRGGGLLK [I9M]
Second: FDHLQNRLKATKNPEEIRGGGLLK [I9K]
The protein stability index of the first is lower: 3.58 for the first, 4.27 for the second.

Compared with FDHLQNRLNATKNPEEIRGGGLLK [I9N], FDHLQNRLCATKNPEEIRGGGLLK [I9C] is higher in protein stability index: 4.06 for the first, 4.43 for the second.

Going from FDHLQNRLRATKNPEEIRGGGLLK [I9R] to FDHLQNRLQATKNPEEIRGGGLLK [I9Q], the protein stability index rises from 4.05 to 4.57.

First: FDHLQNRLTATKNPEEIRGGGLLK [I9T]
Second: FDHLQNRLFATKNPEEIRGGGLLK [I9F]
The protein stability index of the first is higher: 4.4 for the first, 3.53 for the second.

First: VDHLQNRLIATKNPEEIRGGGLLK [F1V]
Second: TDHLQNRLIATKNPEEIRGGGLLK [F1T]
The protein stability index of the first is higher: 4.67 for the first, 4.28 for the second.

Going from SDHLQNRLIATKNPEEIRGGGLLK [F1S] to WDHLQNRLIATKNPEEIRGGGLLK [F1W], the protein stability index falls from 4.09 to 3.76.

First: YDHLQNRLIATKNPEEIRGGGLLK [F1Y]
Second: FDHLQNRLIATKNAEEIRGGGLLK [P14A]
The protein stability index of the first is lower: 3.27 for the first, 3.69 for the second.

First: FDHLQNRLIATKNCEEIRGGGLLK [P14C]
Second: FHHLQNRLIATKNPEEIRGGGLLK [D2H]
The protein stability index of the first is higher: 3.74 for the first, 3.1 for the second.

First: FEHLQNRLIATKNPEEIRGGGLLK [D2E]
Second: FGHLQNRLIATKNPEEIRGGGLLK [D2G]
The protein stability index of the first is higher: 4.18 for the first, 2.82 for the second.

Compared with FFHLQNRLIATKNPEEIRGGGLLK [D2F], FCHLQNRLIATKNPEEIRGGGLLK [D2C] is lower in protein stability index: 1.89 for the first, 1.72 for the second.

Going from FSHLQNRLIATKNPEEIRGGGLLK [D2S] to FYHLQNRLIATKNPEEIRGGGLLK [D2Y], the protein stability index falls from 4.75 to 2.8.

Compared with FKHLQNRLIATKNPEEIRGGGLLK [D2K], FRHLQNRLIATKNPEEIRGGGLLK [D2R] is lower in protein stability index: 3.24 for the first, 3 for the second.

Compared with FPHLQNRLIATKNPEEIRGGGLLK [D2P], FAHLQNRLIATKNPEEIRGGGLLK [D2A] is lower in protein stability index: 4.23 for the first, 2.78 for the second.
